Here are results for two molecules from patent US20210395372A1 (published 2021).

The target in the experiment is T1, human Met-Fc chimera (human, UniProt P08581 25-932).
T1 chain: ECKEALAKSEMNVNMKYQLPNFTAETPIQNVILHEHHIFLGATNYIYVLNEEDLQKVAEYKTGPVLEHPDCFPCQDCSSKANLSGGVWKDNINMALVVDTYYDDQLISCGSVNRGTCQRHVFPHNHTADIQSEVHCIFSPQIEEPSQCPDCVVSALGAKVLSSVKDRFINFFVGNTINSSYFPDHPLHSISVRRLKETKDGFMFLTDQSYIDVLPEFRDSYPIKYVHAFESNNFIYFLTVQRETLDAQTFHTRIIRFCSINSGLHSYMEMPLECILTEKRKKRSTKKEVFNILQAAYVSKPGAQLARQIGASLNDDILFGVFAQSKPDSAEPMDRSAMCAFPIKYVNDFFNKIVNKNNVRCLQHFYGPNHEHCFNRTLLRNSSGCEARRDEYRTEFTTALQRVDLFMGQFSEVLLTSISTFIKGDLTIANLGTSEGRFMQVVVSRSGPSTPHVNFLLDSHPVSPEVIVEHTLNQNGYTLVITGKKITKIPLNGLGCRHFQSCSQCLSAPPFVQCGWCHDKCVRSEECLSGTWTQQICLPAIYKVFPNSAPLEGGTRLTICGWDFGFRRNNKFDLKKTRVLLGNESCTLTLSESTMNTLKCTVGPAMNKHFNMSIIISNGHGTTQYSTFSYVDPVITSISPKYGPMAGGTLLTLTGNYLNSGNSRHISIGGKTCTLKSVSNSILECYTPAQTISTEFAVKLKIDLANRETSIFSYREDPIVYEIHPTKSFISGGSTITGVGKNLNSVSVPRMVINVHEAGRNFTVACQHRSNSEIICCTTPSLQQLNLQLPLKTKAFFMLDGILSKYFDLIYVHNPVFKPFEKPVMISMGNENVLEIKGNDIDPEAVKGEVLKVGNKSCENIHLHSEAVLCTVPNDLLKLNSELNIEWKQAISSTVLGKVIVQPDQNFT
In words: ELISA. In general terms: In an ELISA, binding on a coated surface is turned into a signal by an enzyme label.

B1: hOA-DN30-cl04H08 (antibody)
light: DIVLTQSPASLAVSLGERATINCKASQSVDYDGGSYMSWYQQRPGQPPKLLIYAASNLESGVPDRFSGSGSGTDFTLTIHSLQAEDVATYYCQQSYEDPLTFGGGTKVEIKRTVAAPSVFIFPPSDEQLKSGTASVVCLLNNFYPREAKVQWKVDNALQSGNSQESVTEQDSKDSTYSLSSTLTLSKADYEKHKVYACEVTHQGLSSPVTKSFNRGEC
heavy: not shown
chain: not shown
Molecule B1 registered a Kd of 0.686 nM.

B2: MvDN30 (Fab, V domains shown)
VH: QVQLQQPGTELVKPGASVKLSCKASGYTFTSYWIHWVKQRPGQGLEWIGEINPSSGRTNYNEKFKNKVTVTVDKSSTTAYMQLSNLTSEDSAVYYCASRGYWGQGTTLTVSS
VL: DIVLTQSPASLAVSLGQRATISCKASQSVDYDGGSYMSWFQQRPGQPPKLLISAASNLESGIPARFSGSGSGTDFTLNIHPVEEEDVATYYCQQSYEDPLTFGAGTKVEIK
In turn, B2 displayed a Kd of 0.21 nM.

For orientation: Kd means the concentration at which binding is half-saturated. A high value points to weaker binding.
